B1: RGMA (AE12-1) (antibody, V domains shown)
VH: EVQLVQSGAEVKKPGASVKVSCKASGYTFTSHGISWVRQAPGQGLDWMGWISPYSGNTNYAQKLQGRVTMTTDTSTSTAYMELSSLRSEDTAVYYCARVGSGPYYYMDVWGQGTLVTVSS
VL: QSALTQPRSVSGSPGQSVTISCTGTSSSVGDSIYVSWYQQHPGKAPKLMLYDVTKRPSGVPDRFSGSKSGNTASLTISGLQAEDEADYYCCSYAGTDTLFGGGTKVTVLG
B2: TfR(AB405)-SL-RGMA(AE12-1) (bispecific antibody)
VH: QVQLVQSGAEVKKPGASVKVSCKASGFTFSNYGMHWIRQAPGQGLEWIAMIYYDSSKMNYADTVKGRFTITRDNSTNTLYMELSSLRSEDTAVYYCAVPTSHYVVDVWGQGTTVTVSSASTKGPEVQLVQSGAEVKKPGASVKVSCKASGYTFTSHGISWVRQAPGQGLDWMGWISPYSGNTNYAQKLQGRVTMTTDTSTSTAYMELSSLRSEDTAVYYCARVGSGPYYYMDVWGQGTLVTVSS
VL: EIVMTQSPATLSVSPGERATLSCQASQDIGNWLAWYQQKPGQSPRLLIYGATSLADGVPARFSGSRSGTEFTLTISSLQSEDFAVYYCLQAYNTPWTFGGGTKVEIKRTVAAPSVFIFPPQSALTQPRSVSGSPGQSVTISCTGTSSSVGDSIYVSWYQQHPGKAPKLMLYDVTKRPSGVPDRFSGSKSGNTASLTISGLQAEDEADYYCCSYAGTDTLFGGGTKVTVLG
notes: DVD-Ig composed from its name; constant regions not assigned
B3: TfR(AB405)-GS-RGMA(AE12-1) (bispecific antibody)
VH: QVQLVQSGAEVKKPGASVKVSCKASGFTFSNYGMHWIRQAPGQGLEWIAMIYYDSSKMNYADTVKGRFTITRDNSTNTLYMELSSLRSEDTAVYYCAVPTSHYVVDVWGQGTTVTVSSGGGGSGGGGSEVQLVQSGAEVKKPGASVKVSCKASGYTFTSHGISWVRQAPGQGLDWMGWISPYSGNTNYAQKLQGRVTMTTDTSTSTAYMELSSLRSEDTAVYYCARVGSGPYYYMDVWGQGTLVTVSS
VL: EIVMTQSPATLSVSPGERATLSCQASQDIGNWLAWYQQKPGQSPRLLIYGATSLADGVPARFSGSRSGTEFTLTISSLQSEDFAVYYCLQAYNTPWTFGGGTKVEIKRGGSGGGGSGQSALTQPRSVSGSPGQSVTISCTGTSSSVGDSIYVSWYQQHPGKAPKLMLYDVTKRPSGVPDRFSGSKSGNTASLTISGLQAEDEADYYCCSYAGTDTLFGGGTKVTVLG
notes: as for B2
B4: TfR(AB405)-LL-RGMA(AE12-1) (bispecific antibody)
chain 1: QVQLVQSGAEVKKPGASVKVSCKASGFTFSNYGMHWIRQAPGQGLEWIAMIYYDSSKMNYADTVKGRFTITRDNSTNTLYMELSSLRSEDTAVYYCAVPTSHYVVDVWGQGTTVTVSSASTKGPSVFPLAPEVQLVQSGAEVKKPGASVKVSCKASGYTFTSHGISWVRQAPGQGLDWMGWISPYSGNTNYAQKLQGRVTMTTDTSTSTAYMELSSLRSEDTAVYYCARVGSGPYYYMDVWGQGTLVTVSS
chain 2: B2 VL
B5: DVD1294 (bispecific antibody)
VH: EVQLVESGGGLVQPGNSLTLSCVASGFTFSNYGMHWIRQAPKKGLEWIAMIYYDSSKMNYADTVKGRFTISRDNSKNTLYLEMNSLRSEDTAMYYCAVPTSHYVVDVWGQGVSVTVSSASTKGPEVQLLESGGGLVQPGGSLRLSCAASGFTFSNYGMSWVRQAPGKGLEWVASIRSGGGRTYYSDNVKGRFTISRDNSKNTLYLQMNSLRAEDTAVYYCVRYDHYSGSSDYWGQGTLVTVSS
VL: DIQMTQSPASLSASLEEIVTITCQASQDIGNWLAWYQQKPGKSPQLLIYGATSLADGVPSRFSGSRSGTQFSLKISRVQVEDIGIYYCLQAYNTPWTFGGGTKLELKRTVAAPDVVMTQSPLSLPVTPGEPASISCKSSQSLLDSDGKTYLNWLLQKPGQSPQRLIYLVSKLDSGVPDRFSGSGSGTDFTLKISRVEAEDVGVYYCWQGTHFPRTFGQGTKVEIKR
notes: DVD-Ig, outer AB221 (TfR), inner AB043 (APP), HG-short/LK-short; the entries are the dual variable regions only; constant regions not assigned
B6: DVD1295 (bispecific antibody)
VH: EVQLLESGGGLVQPGGSLRLSCAASGFTFSNYGMSWVRQAPGKGLEWVASIRSGGGRTYYSDNVKGRFTISRDNSKNTLYLQMNSLRAEDTAVYYCVRYDHYSGSSDYWGQGTLVTVSSASTKGPEVQLVESGGGLVQPGNSLTLSCVASGFTFSNYGMHWIRQAPKKGLEWIAMIYYDSSKMNYADTVKGRFTISRDNSKNTLYLEMNSLRSEDTAMYYCAVPTSHYVVDVWGQGVSVTVSS
VL: DVVMTQSPLSLPVTPGEPASISCKSSQSLLDSDGKTYLNWLLQKPGQSPQRLIYLVSKLDSGVPDRFSGSGSGTDFTLKISRVEAEDVGVYYCWQGTHFPRTFGQGTKVEIKRTVAAPDIQMTQSPASLSASLEEIVTITCQASQDIGNWLAWYQQKPGKSPQLLIYGATSLADGVPSRFSGSRSGTQFSLKISRVQVEDIGIYYCLQAYNTPWTFGGGTKLELKR
notes: DVD-Ig, outer AB043 (APP), inner AB221 (TfR), HG-short/LK-short; dual variable regions only; constant regions not assigned
B7: DVD2359 (bispecific antibody)
VH: EVQLLESGGGLVQPGGSLRLSCAASGFTFSNYGMSWVRQAPGKGLEWVASIRSGGGRTYYSDNVKGRFTISRDNSKNTLYLQMNSLRAEDTAVYYCVRYDHYSGSSDYWGQGTLVTVSSASTKGPEVQLVESGGGLVQPGGSLRLSCAASGFTFSNYGMHWIRQAPGKGLEWIAMIYYDSSKMNYADTVKGRFTISRDNAKNSLYLQMNSLRAEDTAVYYCAVPTSHYVVDVWGQGTTVTVSS
VL: DVVMTQSPLSLPVTPGEPASISCKSSQSLLDSDGKTYLNWLLQKPGQSPQRLIYLVSKLDSGVPDRFSGSGSGTDFTLKISRVEAEDVGVYYCWQGTHFPRTFGQGTKVEIKRTVAAPAIQMTQSPSSLSASVGDRVTITCQASQDIGNWLAWYQQKPGKSPKLLIYGATSLADGVPSRFSGSRSGTDFTLTISSLQPEDFATYYCLQAYNTPWTFGGGTKVEIKR
notes: DVD-Ig, outer AB043 (APP), inner AB402 (TfR), HG-short/LK-short; dual variable regions only; constant regions not assigned; also called Aβ(3D6)-SS-AB402 DVD2359; Aβ(3D6)-SS-AB402 DVD-Ig 2359
B8: DVD2361 (bispecific antibody)
chain 1: B7 VH
chain 2: DVVMTQSPLSLPVTPGEPASISCKSSQSLLDSDGKTYLNWLLQKPGQSPQRLIYLVSKLDSGVPDRFSGSGSGTDFTLKISRVEAEDVGVYYCWQGTHFPRTFGQGTKVEIKRTVAAPEIVMTQSPATLSVSPGERATLSCQASQDIGNWLAWYQQKPGQSPRLLIYGATSLADGVPARFSGSRSGTEFTLTISSLQSEDFAVYYCLQAYNTPWTFGGGTKVEIKR
B9: TfR(AB405)-LS-RGMA(AE12-1) (bispecific antibody)
chain 1: B4 chain 1
chain 2: EIVMTQSPATLSVSPGERATLSCQASQDIGNWLAWYQQKPGQSPRLLIYGATSLADGVPARFSGSRSGTEFTLTISSLQSEDFAVYYCLQAYNTPWTFGGGTKVEIKRTVAAPQSALTQPRSVSGSPGQSVTISCTGTSSSVGDSIYVSWYQQHPGKAPKLMLYDVTKRPSGVPDRFSGSKSGNTASLTISGLQAEDEADYYCCSYAGTDTLFGGGTKVTVLG
B10: AB405-SL-Aβ(3D6) (bispecific antibody)
VH: QVQLVQSGAEVKKPGASVKVSCKASGFTFSNYGMHWIRQAPGQGLEWIAMIYYDSSKMNYADTVKGRFTITRDNSTNTLYMELSSLRSEDTAVYYCAVPTSHYVVDVWGQGTTVTVSSASTKGPEVQLLESGGGLVQPGGSLRLSCAASGFTFSNYGMSWVRQAPGKGLEWVASIRSGGGRTYYSDNVKGRFTISRDNSKNTLYLQMNSLRAEDTAVYYCVRYDHYSGSSDYWGQGTLVTVSS
VL: EIVMTQSPATLSVSPGERATLSCQASQDIGNWLAWYQQKPGQSPRLLIYGATSLADGVPARFSGSRSGTEFTLTISSLQSEDFAVYYCLQAYNTPWTFGGGTKVEIKRTVAAPSVFIFPPDVVMTQSPLSLPVTPGEPASISCKSSQSLLDSDGKTYLNWLLQKPGQSPQRLIYLVSKLDSGVPDRFSGSGSGTDFTLKISRVEAEDVGVYYCWQGTHFPRTFGQGTKVEIKR
notes: DVD-Ig composed from its name; constant regions not assigned; also called AB405-SL-Aβ(3D6) DVD-Ig
B11: Aβ(3D6)-GS-AB403 (bispecific antibody)
VH: EVQLLESGGGLVQPGGSLRLSCAASGFTFSNYGMSWVRQAPGKGLEWVASIRSGGGRTYYSDNVKGRFTISRDNSKNTLYLQMNSLRAEDTAVYYCVRYDHYSGSSDYWGQGTLVTVSSGGGGSGGGGSEVQLVESGGGLVQPGGSLRLSCAASGFTFSNYGMHWIRQAPGKGLEWIAMIYYDSSKMNYADTVKGRFTISRDNAKNSLYLQMNSLRAEDTAVYYCAVPTSHYVVDVWGQGTTVTVSS
VL: DVVMTQSPLSLPVTPGEPASISCKSSQSLLDSDGKTYLNWLLQKPGQSPQRLIYLVSKLDSGVPDRFSGSGSGTDFTLKISRVEAEDVGVYYCWQGTHFPRTFGQGTKVEIKRGGSGGGGSGEIVMTQSPATLSVSPGERATLSCQASQDIGNWLAWYQQKPGQSPRLLIYGATSLADGVPARFSGSRSGTEFTLTISSLQSEDFAVYYCLQAYNTPWTFGGGTKVEIKR
notes: DVD-Ig composed from its name; Aβ(3D6) = AB043 read from DVD2359; constant regions not assigned; also called Aβ(3D6)-GS-AB403 DVD-Ig

Each binder was assayed against Repulsive guidance molecule A (assay: cell-based or functional assay).

Binder | BMP Assay (EC50, nM) [nM]
B1 | 0.25
B2 | 0.73
B3 | 3.12
B4 | 0.701

What follows are binders tested against T1, mouse Transferrin Receptor overexpressed on Hek 293 cells (mouse, UniProt Q62351 1-763) (assay: cell-based MSD-ECL binding on Hek293 cells overexpressing mouse TfR).
T1 construct: whole, on cells; also called Hek293/mTfR; 293/mTFR
T1 sequence (Q62351 whole entry): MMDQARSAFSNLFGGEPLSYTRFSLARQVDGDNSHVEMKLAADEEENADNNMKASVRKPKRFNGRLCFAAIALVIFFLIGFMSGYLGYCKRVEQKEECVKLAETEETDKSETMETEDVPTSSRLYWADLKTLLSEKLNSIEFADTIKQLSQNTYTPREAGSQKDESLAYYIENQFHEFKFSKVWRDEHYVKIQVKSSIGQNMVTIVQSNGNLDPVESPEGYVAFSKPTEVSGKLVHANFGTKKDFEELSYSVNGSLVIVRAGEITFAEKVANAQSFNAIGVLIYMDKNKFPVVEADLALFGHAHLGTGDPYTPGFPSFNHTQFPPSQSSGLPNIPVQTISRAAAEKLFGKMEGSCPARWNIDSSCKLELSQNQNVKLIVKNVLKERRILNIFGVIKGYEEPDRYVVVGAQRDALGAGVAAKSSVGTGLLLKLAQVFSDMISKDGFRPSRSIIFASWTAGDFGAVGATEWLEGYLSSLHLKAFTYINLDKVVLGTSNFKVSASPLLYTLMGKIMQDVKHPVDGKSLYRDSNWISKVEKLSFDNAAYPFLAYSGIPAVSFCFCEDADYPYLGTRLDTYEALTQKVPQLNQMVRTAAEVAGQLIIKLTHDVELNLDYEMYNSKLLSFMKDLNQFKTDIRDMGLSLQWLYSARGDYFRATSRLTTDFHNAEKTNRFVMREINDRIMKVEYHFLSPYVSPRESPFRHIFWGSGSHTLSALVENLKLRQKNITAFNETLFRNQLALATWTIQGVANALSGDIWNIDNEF
Protocol: (§1) Meso-scale Discovery (MSD) Electrochemiluminescesnce (ECL) assays to screen for antibodies or DVDs that bind a desired target antigen expressed on the cell surface were performed as follows: Hek 293 cells overexpressing mouse Transferin Receptor were added onto MSD 96-well plates (MSD Cat# L11 XB-3, lot#2290-EA) which were blocked using blocking buffer (30% FBS Serum (Hyclone) in PBS) at 37° C. for 1 hr. After incubating at RT for 30 min with mild agitation, plates were washed with DPBS 3 times and Abs/DVDs (10,000 ng/ml) were added. After incubating for 1 hr at RT, plates were washed 3 times with DPBS and 25 ul of Goat anti human Sulfo TAG (MSD Cat# R32AC-, Lot# W001162) at 1 μg/ml is added. Following a 1 h incubation at RT for 1 hr, plates are washed and MSD read buffer is added before reading on MSD SECTOR Imager 6000. EC50 values are obtained using Xlfit4 software package

Binder | EC50 [nM]
B5 | 0.11
B6 | 3.7
B7 | 12
B8 | 10.7

The binders below were run against T1, mouse Transferrin Receptor … (assay: 293/mTFR cell-based assay).
Protocol: as §1

Binder | EC50 [nM]
B2 | 4.41
B3 | 28.1
B4 | 4.44
B7 | 12
B9 | 3.9
B10 | 4.71
B11 | 1.98
